Conditions in all cases: both partners purified
Assay [1] addresses T1, Jagged-2 receptor ectodomain (Homo sapiens (assumed), UniProt Q9Y219).
T1 construct: Jagged-2 ectodomain; it may be an Fc fusion like the Notch proteins; also called J2
Nature of the assay: BLI; Octet RED384; Fabs immobilised on amine-reactive generation-2 or anti-Fab CH1 biosensors, target proteins in solution at three or more concentrations; 25 C, PBS; global 1:1 fit; apparent KD (Fc-Notch proteins may dimerize, avidity). On the technique in general: In BLI a coated tip is dipped into the sample, and binding shifts an interference pattern.
T1 sequence (Q9Y219 27-1080): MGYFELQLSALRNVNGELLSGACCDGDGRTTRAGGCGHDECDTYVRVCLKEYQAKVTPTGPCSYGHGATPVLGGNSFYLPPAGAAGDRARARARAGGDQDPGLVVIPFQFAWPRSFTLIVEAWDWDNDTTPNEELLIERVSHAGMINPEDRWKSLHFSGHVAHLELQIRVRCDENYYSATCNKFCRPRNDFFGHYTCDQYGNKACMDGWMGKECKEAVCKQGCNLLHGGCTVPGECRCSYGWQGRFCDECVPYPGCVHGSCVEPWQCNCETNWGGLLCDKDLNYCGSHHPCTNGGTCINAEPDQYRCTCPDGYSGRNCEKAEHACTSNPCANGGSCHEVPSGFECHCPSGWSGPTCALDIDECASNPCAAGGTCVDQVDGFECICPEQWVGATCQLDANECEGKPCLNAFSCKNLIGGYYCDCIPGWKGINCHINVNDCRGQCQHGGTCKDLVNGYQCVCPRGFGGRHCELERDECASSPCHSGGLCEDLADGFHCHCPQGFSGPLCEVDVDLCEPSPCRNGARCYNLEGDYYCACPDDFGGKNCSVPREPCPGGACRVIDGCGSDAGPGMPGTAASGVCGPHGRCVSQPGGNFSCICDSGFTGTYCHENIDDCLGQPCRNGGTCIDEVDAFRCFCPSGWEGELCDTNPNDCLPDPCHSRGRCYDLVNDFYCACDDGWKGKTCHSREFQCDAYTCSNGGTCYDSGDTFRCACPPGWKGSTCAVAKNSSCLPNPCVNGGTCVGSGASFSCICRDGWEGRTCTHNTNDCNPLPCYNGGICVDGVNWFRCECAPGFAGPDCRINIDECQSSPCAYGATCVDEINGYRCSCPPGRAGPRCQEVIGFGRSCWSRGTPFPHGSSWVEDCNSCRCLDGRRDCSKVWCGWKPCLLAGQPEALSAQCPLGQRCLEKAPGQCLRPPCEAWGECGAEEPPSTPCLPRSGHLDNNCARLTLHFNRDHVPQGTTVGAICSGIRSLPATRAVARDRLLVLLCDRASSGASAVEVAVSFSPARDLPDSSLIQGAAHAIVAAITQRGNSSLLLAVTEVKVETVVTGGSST

The target of assay [2] is T2, recombinant Fc-tag-fused human Notch-1 extracellular domain (Homo sapiens, UniProt P46531).
T2 construct: Notch-1, human, extracellular domain; No catalogue number and no residue limits are printed; also called N1; source: bought: R&D Systems
Described as above.
T2 sequence (P46531 19-1735): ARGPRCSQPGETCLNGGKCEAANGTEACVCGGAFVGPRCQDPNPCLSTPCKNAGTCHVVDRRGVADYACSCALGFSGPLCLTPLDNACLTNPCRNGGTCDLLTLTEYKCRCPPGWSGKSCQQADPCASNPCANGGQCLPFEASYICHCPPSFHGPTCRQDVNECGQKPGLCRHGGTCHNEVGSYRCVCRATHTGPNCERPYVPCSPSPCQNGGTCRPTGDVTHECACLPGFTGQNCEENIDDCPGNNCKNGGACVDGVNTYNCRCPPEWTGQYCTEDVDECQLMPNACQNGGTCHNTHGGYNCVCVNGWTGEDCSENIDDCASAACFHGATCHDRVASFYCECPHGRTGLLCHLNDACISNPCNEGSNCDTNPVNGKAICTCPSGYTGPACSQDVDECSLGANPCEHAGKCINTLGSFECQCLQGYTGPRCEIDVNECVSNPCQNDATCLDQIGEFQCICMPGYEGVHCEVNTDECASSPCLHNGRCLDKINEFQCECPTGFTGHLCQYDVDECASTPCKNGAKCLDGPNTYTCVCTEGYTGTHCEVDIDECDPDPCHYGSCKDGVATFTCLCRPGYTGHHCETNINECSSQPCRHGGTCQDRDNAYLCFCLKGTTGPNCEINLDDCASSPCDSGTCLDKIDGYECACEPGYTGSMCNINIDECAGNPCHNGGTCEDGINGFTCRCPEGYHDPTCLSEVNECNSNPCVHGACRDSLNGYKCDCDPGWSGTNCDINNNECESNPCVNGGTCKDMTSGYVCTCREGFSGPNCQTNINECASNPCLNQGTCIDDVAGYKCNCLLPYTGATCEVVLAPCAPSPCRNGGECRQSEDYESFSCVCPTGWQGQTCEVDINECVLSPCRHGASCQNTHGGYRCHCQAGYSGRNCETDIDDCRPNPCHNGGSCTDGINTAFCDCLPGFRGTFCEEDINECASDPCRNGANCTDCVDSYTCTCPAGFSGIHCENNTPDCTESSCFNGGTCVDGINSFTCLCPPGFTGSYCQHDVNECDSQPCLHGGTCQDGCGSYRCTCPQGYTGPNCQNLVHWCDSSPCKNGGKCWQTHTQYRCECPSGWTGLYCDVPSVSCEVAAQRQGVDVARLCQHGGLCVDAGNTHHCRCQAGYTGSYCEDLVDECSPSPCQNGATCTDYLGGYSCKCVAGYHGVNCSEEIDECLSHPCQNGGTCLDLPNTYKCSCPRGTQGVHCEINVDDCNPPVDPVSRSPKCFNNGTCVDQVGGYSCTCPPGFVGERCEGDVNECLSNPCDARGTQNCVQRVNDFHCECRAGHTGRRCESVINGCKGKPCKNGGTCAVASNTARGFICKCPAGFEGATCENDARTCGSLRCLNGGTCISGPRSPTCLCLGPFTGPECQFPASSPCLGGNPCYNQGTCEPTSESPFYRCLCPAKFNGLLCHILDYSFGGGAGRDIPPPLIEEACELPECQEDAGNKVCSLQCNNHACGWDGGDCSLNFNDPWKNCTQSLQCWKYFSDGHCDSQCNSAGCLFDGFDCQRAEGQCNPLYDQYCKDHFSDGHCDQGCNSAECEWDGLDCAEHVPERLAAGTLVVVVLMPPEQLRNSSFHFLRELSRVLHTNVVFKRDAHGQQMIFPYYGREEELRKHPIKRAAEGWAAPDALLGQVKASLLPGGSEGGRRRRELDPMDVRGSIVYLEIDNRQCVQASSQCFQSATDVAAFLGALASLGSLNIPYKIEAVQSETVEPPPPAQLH

For assay [3], the target named is T2, recombinant Fc-tag-fused human Notch-1 …. Nature of the assay: ELISA; multi-point Fab-ELISA: target immobilised at 5 ug/ml on MaxiSorp plates; purified Fab 0.01 nM-1 uM in PT for 30 min; detected with HRP-conjugated anti-HIS antibody; EC50 from a one-site specific-binding fit.
For assay [4], the target named is T3, Jagged-2 receptor ectodomain (Homo sapiens (assumed), UniProt Q9Y219).
T3 construct: Jagged-2 ectodomain; Probably an Fc fusion like the Notch proteins (surmise); also called J2
Nature of the assay: BLI; Fabs immobilised on amine-reactive generation-2 or anti-Fab CH1 biosensors, target proteins in solution at at least three concentrations; 25°C, PBS; global fit to a 1:1 binding model; apparent constants (Fc fusions may dimerize).
T3 sequence (Q9Y219 27-1080): as the sequence (Q9Y219 27-1080) above

Assay [5] concerns the target T4, recombinant Fc-tag-fused human Notch-1 extracellular domain (Homo sapiens, UniProt P46531).
T4 construct: Notch-1, human, extracellular domain; the R&D Systems product may hold only part of the ectodomain (surmise); also called N1; Fc-Notch; source: bought: R&D Systems
The assay is described as above.
T4 sequence (P46531 19-1735): as the sequence (P46531 19-1735) above

B1: Fab N1/F/R2 (purified soluble Fab) (Fab, V domains shown)
VH: EVQLVESGGGLVQPGGSLRLSCAASGFNFSSSSIHWVRQAPGKGLEWVASIYSYYGYTYYADSVKGRFTISADTSKNTAYLQMNSLRAEDTAVYYCARSWWGGSWYAALDYWGQGTLVTVSS
VL: DIQMTQSPSSLSASVGDRVTITCRASQSVSSAVAWYQQKPGKAPKLLIYSASSLYSGVPSRFSGSRSGTDFTLTISSLQPEDFATYYCQQWWSLITFGQGTKVEIK
notes: light chain on the modified trastuzumab framework of Library-F (Persson et al., 2013); CDRs L1 and L2 fixed; clone reconstructed from NGS information; Fab heavy chain on the modified trastuzumab framework of Library-F; medium CDRH3 length; The Fab is detected by an anti-HIS antibody; source: E. coli BL21, purified (Protein-L resin)
Broadly, the EC50 is the concentration at which the effect is half-maximal. For the molecule B1, the Kd in assay [1] was determined as 70.4 ± 2.3 nM; in assay [2], 1.38 nM. The EC50 in assay [3] is about 4 nM.

B2: Fab N1/F/R2 (Fab, V domains shown)
VH: B1 VH
VL: B1 VL
notes: Library-F rare Fab reconstructed from NGS information, modified trastuzumab framework; Library-F rare Fab reconstructed from NGS information, modified trastuzumab framework, CDRs L1 and L2 fixed; The Fab has a His tag (detected with anti-HIS antibody and biosensors); Library-F framework: Persson et al., 2013; source: E. coli BL21, purified (Protein-L resin)
By koff is commonly meant a measure of how fast the partners let go of each other. What is called kon is the rate constant with which the complex forms. Regarding B2, the values for the koff in assay [4] and in assay [5] were 0.0226 s⁻¹ and 6.91e-05 s⁻¹, respectively. For the same molecule, the kon in assay [4] came to 313000 M⁻¹ s⁻¹; in assay [5], 54400 M⁻¹ s⁻¹.

The values are drawn from PMC9381698, “Generation of synthetic antibody fragments with optimal complementarity determining region lengths for Notch-1 recognition” (Frontiers in Microbiology, 2022).
